Substrate in this data set: CCn1c(=NN=c2sc3cc(S(=O)(=O)O)ccc3n2CC)sc2cc(S(=O)(=O)O)ccc21
Nature of the data set: spectrophotometric ABTS oxidation; Michaelis-Menten fit. In kind it is biochemical, Pleurotus ostreatus. Conditions: 100 mM sodium citrate buffer, pH 3.0 ± 0.2, 25 °C, apparent constant, enzyme concentrate. The source says:
spectrophotometric ABTS oxidation; Michaelis-Menten fit on rPOXA 1B

B1: rPOXA 1B (Pleurotus ostreatus) (protein)
chain: SIGPRGTLNIANKVIQPDGFYRSTVLAGGSYPGPLIKGKTGDRFQINVVNKLADTSMPVDTSIHWHGLFVKGHNWADGPAMVTQCPIVPGHSFLYDFEVPDQAGTFWYHSHLGTQYCDGLRGPLVVYSKNDPHKRLYDVDDESTVLTVGDWYHAPSLSLTGVPHPDSTLFNGLGRSLNGPASPLYVMNVVKGKRYRIRLINTSCDSNYQFSIDGHTFTVIEADGENTQPLQVDQVQIFAGQRYSLVLNANQAVGNYWIRANPNSGDPGFENQMNSAILRYKGARSIDPTTPEQNATNPLHEYNLRPLIKKPAPGKPFPGGADHNINLNFAFDPATALFTANNHTFVPPTVPVLLQILSGTRDAHDLAPAGSIYDIKLGDVVEITMPALVFAGPHPIHLHGHTFAVVRSAGSSTYNYENPVRRDVVSIGDDPTDNVTIRFVADNAGPWFLHCHIDWHLDLGFAVVFAEGVNQTAAANPVPEAWNNLCPIYNSSNPSKLLMGTNAIGRLPAPLKA
notes: secreted from Pichia pastoris/pGAPZαA-LaccPost-Stop (Clone 1); recombinant culture concentrate, not purified
With B1, the Km is 37.2 µM and the Vmax amounted to 10.5 µM/min.

As usually defined, the Km is the substrate concentration at which the rate is half of its maximum. What is called Vmax is the rate approached at saturating substrate.

Source of the values: article PMC10648076, “Statistical Improvement of rGILCC 1 and rPOXA 1B Laccases Activity Assay Conditions Supported by Molecular Dynamics” (Molecules, 2023).
